In patent US20190194322A1 (BIO TECHNE, published 2019):
Each block holds one binder with its values, some of them ahead of it.

B4: Recombinant human VSIG3 Fc Chimera (Fc fusion)
chain: LEVSESPGSIQVARGQTAVLPCTFTTSAALINLNVIWMVTPLSNANQPEQVILYQGGQMFDGAPRFHGRVGFTGTMPATNVSIFINNTQLSDTGTYQCLVNNLPDIGGRNIGVTGLTVLVPPSAPHCQIQGSQDIGSDVILLCSSEEGIPRPTYLWEKLDNTLKLPPTATQDQVQGTVTIRNISALSSGLYQCVASNAIGTSTCLLDLQVISPQPRNIGLIAGIEGRMDPKSCDKTHTCPPCPAPEAEGAPSVFLFPPKPKDTLMISRTPEVTCVVVDVSHEDPEVKFNWYVDGVEVHNAKTKPREEQYNSTYRVVSVLTVLHQDWLNGKEYKCKVSNKALPAPIEKTISKAKGQPREPQVYTLPPSRDELTKNQVSLTCLVKGFYPSDIAVEWESNGQPENNYKATPPVLDSDGSFFLYSKLTVDKSRWQQGNVFSCSVMHEALHNHYTQKSLSLSPGK
notes: also called rhVSIG3; rhVSIG-3

Experiments:
[1] = molecular target: B4; test: SPR (Biacore), VSIG3-Fc immobilised, antibody as analyte (FIG. 14)
Procedure: The affinity of these blocking antibodies to purified recombinant VSIG3 was measured by surface plasmon resonance (SPR) using a Biacore T200 in two assay orientations. […] Dilutions of antibody were then flowed over the surface and the double reference subtracted data fit to a 1:1 Langmuir binding model with Biacore T200 Evaluation Software version 3.1 (FIG. 14). In a separate assay, a fusion protein containing protein A/G/L (Novus Biologicals, Littleton, Colo.) was covalently immobilized to the surface of a CM5 chip by standard amine coupling chemistry. Antibody was captured, followed by dilutions of VSIG3 His-fusion. Double reference subtracted data were fit to a 1:1 Langmuir binding model as described above (FIG. 15).

[2] = molecular target: T1, VSIG3 ectodomain coupled to pentamerizing rat COMP helix and alkaline phosphatase (AVEXIS prey) (rat, UniProt Q5DX21 23-241; P35444 28-72); test: AVEXIS, VSIG8 Fc-fusion bait, VSIG3-COMP-AP prey (FIG. 12B)
T1 construct: used as conditioned medium; also called VSIG3 oligomer as prey; penta-VSIG3; not shown: alkaline phosphatase enzyme
T1 sequence (looked up): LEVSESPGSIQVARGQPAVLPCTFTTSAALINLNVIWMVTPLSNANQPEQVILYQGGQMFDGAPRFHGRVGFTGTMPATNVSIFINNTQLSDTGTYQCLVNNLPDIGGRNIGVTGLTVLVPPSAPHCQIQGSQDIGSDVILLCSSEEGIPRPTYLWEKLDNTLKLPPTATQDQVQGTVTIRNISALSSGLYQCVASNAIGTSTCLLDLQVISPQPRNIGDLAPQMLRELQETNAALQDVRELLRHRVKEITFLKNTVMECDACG
Source text: (§1) FIG. 12B AVEXIS was used to screen interactions between VISTA and VSIG3, VSIG8, and PD1, and results were quantified by measuring absorbance at 650 nm using the alkaline phosphatase reagent BluePhos. […] FIG. 12C.
(§2) The ectodomains of VSIG3, VISTA, and other immunoregulatory receptors were cloned into a construct containing the rat cartilage oligomeric matrix protein (COMP), which forms a covalent, pentameric coiled-coil helix oligomer (Malashkevich et al. Science. 274 (1996) 761-5), followed by an alkaline phosphatase enzyme for detection. […] Conditioned media containing the oligomeric prey protein fused to the COMP helical oligomer and alkaline phosphatase was incubated and washed, and the interaction was quantitatively measured by detection of alkaline phosphatase activity using the BLUEPHOS reagent (KPL/Sera Care, Milford, Mass.).

[3] = molecular target: T2, PD1 ectodomain coupled to pentamerizing rat COMP helix and alkaline phosphatase (AVEXIS prey) (rat, UniProt Q15116 25-170; P35444 28-72); test: AVEXIS, VSIG3 Fc-fusion bait, PD1-COMP-AP prey (FIG. 12B)
T2 construct: not shown: alkaline phosphatase enzyme
Source text: as §1, §2

[4] = molecular target: T3, VSIG8 ectodomain coupled to pentamerizing rat COMP helix and alkaline phosphatase (AVEXIS prey) (rat, UniProt P0DPA2 22-263; P35444 28-72); test: AVEXIS, VSIG3 Fc-fusion bait, VSIG8-COMP-AP prey (FIG. 12B)
T3 construct: not shown: alkaline phosphatase enzyme
T3 sequence (looked up): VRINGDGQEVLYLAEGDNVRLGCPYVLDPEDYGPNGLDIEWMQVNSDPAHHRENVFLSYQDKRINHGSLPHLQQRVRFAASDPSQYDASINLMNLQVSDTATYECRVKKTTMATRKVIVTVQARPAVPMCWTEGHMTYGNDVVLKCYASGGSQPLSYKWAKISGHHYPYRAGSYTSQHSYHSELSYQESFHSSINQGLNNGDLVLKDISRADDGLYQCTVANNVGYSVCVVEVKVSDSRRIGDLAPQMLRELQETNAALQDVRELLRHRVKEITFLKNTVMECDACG
Source text: as §1, §2

[5] = molecular target: T4, Recombinant human VISTA Fc Chimera (human (homo sapiens)); test: ELISA, rhVISTA coated at 2 µg/mL, biotin-labelled rhVSIG3 titrated, streptavidin-HRP (FIG. 1A)
T4 construct: also called rhVISTA; VISTA-Fc bait
Source text: The non-specific binding is subtracted and in all cases was less than 5% of the total signal.

binding result [1]: binds
B1: mouse anti-human VSIG3 monoclonal antibody from clone #973428 (antibody, IgG1, V domains shown)
VH: EVQLVESGGDLVKPGGSLKLSCAASGFTFNSYGMSWVRQTPDKRLEWVAIISSGGSYTYYPDSVKGRFTISRDNAKNTLYLQMSSLKSEDTAMYYCARLSYYYGSSPYAMDYWGQGTSVTISS
VL: DIVLTQSPASLAVSLGQRATISCRASKSVSTSGYSYMHWYQQKPGQSPKLLIYLASNLESGVPARCSGSGSGTDFTLNIHPVEEEDAATYYCQHSRELPYTFGGGTKLEIKR
notes: also called fusion 9734 clone 28

binding result [2]: no binding
B2: VSIG8 Fc-fusion (AVEXIS bait) (Fc fusion, UniProt P0DPA2 22-263, looked up)
chain: VRINGDGQEVLYLAEGDNVRLGCPYVLDPEDYGPNGLDIEWMQVNSDPAHHRENVFLSYQDKRINHGSLPHLQQRVRFAASDPSQYDASINLMNLQVSDTATYECRVKKTTMATRKVIVTVQARPAVPMCWTEGHMTYGNDVVLKCYASGGSQPLSYKWAKISGHHYPYRAGSYTSQHSYHSELSYQESFHSSINQGLNNGDLVLKDISRADDGLYQCTVANNVGYSVCVVEVKVSDSRRIG
notes: extracellular domain; not shown: Fc

binding result [1]: binds
B3: mouse anti-human VSIG3 monoclonal antibody from clone #973401 (antibody, IgG1, V domains shown)
VH: QVQLQQSAAELARPGASVKMSCKASGYTFATYTIHWVKQRPGQGLEWIGYINPSSGYTEYNQKFKDKTTLTADKSSSTAYMQLSSLTSEDSAVYYCARREVYGSGSMDYWGQGTSVTVSS
VL: QIVLTQSPALMSASPGEKVTMTCSASSSVSFMYWYHQKPRSSPKPWIYLTSNLASGVPARFSGSGSGTSYSLTISSMEAEDAATYYCQQWSSNPLTFGAGTKLELKR
notes: also called fusion 9734 clone 1

Binder: B4
binding result [3]: no binding
binding result [4]: no binding
EC50 [5]: ~0.25 µg/mL
